The target of the test is endothelial protein C receptor (EPCR), residues 16 to 210, biotinylated on the BAP tag (human) (UniProt Q9UNN8). Description: SPR.
Chain of endothelial protein C receptor (EPCR), residues 16 to 210, biotinylated on the BAP tag (human) (Q9UNN8 16-210): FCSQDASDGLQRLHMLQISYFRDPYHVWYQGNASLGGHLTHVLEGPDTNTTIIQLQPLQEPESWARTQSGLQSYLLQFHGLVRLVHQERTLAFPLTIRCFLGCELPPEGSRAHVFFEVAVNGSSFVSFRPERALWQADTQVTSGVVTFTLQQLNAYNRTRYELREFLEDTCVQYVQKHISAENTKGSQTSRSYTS

A word on the Kd: it is the equilibrium constant for the complex coming apart. As to “HB3var03 CIDRα1.4 domain D576A K642A double mutant (domain or fragment)”, the Kd was found to be 220 nM.
